Experimental data from paper PMC4755594, “Structure of a Bacterial Virus DNA-Injection Protein Complex Reveals a Decameric Assembly with a Constricted Molecular Channel” (PLoS ONE, 2016).

Molecular target: the molecule itself
Assay: SEC; refolded gp12 after Ni-NTA on Hiload Superdex 200; decamer peak at 54.6 ml, monomer peak at 73.6 ml; pooled decamer fractions run again

B1: bacteriophage Sf6 DNA-injection protein gp12 (natural protein, UniProt Q716G3 1-431, looked up)
chain: MATWQGSNGGLLAGIGGVNSNAPSVNDIGNTLQLIRQNNDIERSGANNVGLTALQGLSGIAGVFQQEKQARRQKEFQQAYANAYASGDRGALRQLATQYPDQIESVRKGMGFIDEDQRNSIGTLAAGARLAASSPEAMQSWLQNNANELARVGVDPNNVAQMYQQNPSGFGEFVDHLGMAALGPIDYFNVQDKMAGREIDRGRLAETIRSNKAGEALTVRGQDIQIRGQNISAQNAALSREIQRAELQEKALDRQIARESNQLKLEELKQKQADVRQKADIARADRQAAAQGAVDTFSTALDSLNEIEQSPGLSKAVGIRSAFPTVPGSDAANFEARLDTFKAQTFLPMVQSLKGMGALSDAEGKKLSDAVGALSPKMSEKAFRDSIGKIRNQLESKLSTVKKQFDYQEPVQNTPVQQPTTGSNFSSLWGD
notes: gp12 (product of gene 12) of bacteriophage Sf6, 431 residues, 46.5 kDa; ortholog of phage P22 gp20; The same preparation gave a monomer peak and a decamer peak on SEC; the assembled form has 10 copies of the chain; also called Sf6 gp12; gp12 monomer
stoichiometry N: 10
